Measurements as given in doi:10.1101/2021.04.12.439405 (bioRxiv, 2021).

Target: T1, MukB^K1114E (E. coli, UniProt P22523 1-1486, K1114E)
T1 sequence (looked up): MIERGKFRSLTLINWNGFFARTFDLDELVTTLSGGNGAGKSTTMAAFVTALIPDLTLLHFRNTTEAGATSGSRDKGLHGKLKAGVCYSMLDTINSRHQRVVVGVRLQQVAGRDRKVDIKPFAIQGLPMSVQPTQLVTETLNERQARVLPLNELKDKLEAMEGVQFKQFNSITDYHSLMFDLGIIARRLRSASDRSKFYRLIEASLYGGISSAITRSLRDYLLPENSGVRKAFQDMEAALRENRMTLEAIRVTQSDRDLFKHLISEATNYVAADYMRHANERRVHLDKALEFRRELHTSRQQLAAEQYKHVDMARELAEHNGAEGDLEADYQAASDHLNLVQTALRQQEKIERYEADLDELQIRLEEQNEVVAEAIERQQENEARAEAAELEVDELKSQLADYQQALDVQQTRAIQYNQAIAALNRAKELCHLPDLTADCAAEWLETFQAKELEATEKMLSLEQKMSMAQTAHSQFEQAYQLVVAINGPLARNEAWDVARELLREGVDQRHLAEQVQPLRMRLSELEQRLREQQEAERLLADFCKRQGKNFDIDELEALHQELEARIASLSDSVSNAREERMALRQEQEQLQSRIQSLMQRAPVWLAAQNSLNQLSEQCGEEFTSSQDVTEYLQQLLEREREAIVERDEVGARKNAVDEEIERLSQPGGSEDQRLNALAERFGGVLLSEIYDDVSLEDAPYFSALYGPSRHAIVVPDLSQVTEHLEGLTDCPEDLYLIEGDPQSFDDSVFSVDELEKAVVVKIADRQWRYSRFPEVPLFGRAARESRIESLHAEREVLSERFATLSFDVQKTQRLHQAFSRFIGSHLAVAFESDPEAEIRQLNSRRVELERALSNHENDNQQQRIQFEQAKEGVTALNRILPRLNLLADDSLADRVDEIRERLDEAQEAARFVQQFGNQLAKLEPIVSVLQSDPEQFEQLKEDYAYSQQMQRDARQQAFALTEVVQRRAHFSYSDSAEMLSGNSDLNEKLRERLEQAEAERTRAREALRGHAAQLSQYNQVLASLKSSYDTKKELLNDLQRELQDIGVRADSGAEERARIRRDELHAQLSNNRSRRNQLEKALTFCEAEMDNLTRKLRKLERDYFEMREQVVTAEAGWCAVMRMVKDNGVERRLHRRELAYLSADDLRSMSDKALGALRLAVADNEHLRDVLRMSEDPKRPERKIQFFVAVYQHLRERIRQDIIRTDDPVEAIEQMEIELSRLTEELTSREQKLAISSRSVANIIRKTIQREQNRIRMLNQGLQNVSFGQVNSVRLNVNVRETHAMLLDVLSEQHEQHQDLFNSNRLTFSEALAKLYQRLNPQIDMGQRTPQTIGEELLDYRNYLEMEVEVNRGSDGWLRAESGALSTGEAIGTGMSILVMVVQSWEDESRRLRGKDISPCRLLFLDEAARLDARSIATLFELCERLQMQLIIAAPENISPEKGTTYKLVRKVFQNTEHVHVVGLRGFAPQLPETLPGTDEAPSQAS
Assay: native gel or EMSA

B1: His-MukF (natural protein, E. coli, UniProt P60293 1-440, looked up)
chain: MSEFSQTVPELVAWARKNDFSISLPVDRLSFLLAVATLNGERLDGEMSEGELVDAFRHVSDAFEQTSETIGVRANNAINDMVRQRLLNRFTSEQAEGNAIYRLTPLGIGITDYYIRQREFSTLRLSMQLSIVAGELKRAADAAEEGGDEFHWHRNVYAPLKYSVAEIFDSIDLTQRLMDEQQQQVKDDIAQLLNKDWRAAISSCELLLSETSGTLRELQDTLEAAGDKLQANLLRIQDATMTHDDLHFVDRLVFDLQSKLDRIISWGQQSIDLWIGYDRHVHKFIRTAIDMDKNRVFAQRLRQSVQTYFDEPWALTYANADRLLDMRDEEMALRDEEVTGELPEDLEYEEFNEIREQLAAIIEEQLAVYKTRQVPLDLGLVVREYLSQYPRARHFDVARIVIDQAVRLGVAQADFTGLPAKWQPINDYGAKVQAHVIDKY
  binding result: binds
